Like-named read-outs stand apart in the source and are kept apart here. Ends that are not written are not given here. * marks the point of attachment. FITC = O=C1OC2(c3ccc(O)cc3Oc3cc(O)ccc32)c2ccc(NC(=S)*)cc21
Tests used:
Conditions in all cases: both partners purified
Radixin FERM domain [1] = molecular target: T1, Radixin FERM domain (human, UniProt P35241 5-295)
T1 construct: also called RDX; RDX FERM
T1 sequence (P35241 5-295): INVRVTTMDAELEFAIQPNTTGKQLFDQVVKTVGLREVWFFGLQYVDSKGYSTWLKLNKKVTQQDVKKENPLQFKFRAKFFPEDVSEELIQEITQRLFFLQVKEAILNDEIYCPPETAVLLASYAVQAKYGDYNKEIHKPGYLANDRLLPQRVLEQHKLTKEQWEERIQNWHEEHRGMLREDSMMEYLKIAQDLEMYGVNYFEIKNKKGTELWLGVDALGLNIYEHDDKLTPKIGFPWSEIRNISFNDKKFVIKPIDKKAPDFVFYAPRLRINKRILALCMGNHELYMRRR

Ezrin FERM domain [2] = molecular target: T2, Ezrin FERM domain (human, UniProt P15311 2-296)
T2 construct: also called EZR FERM
T2 sequence (P15311 2-296): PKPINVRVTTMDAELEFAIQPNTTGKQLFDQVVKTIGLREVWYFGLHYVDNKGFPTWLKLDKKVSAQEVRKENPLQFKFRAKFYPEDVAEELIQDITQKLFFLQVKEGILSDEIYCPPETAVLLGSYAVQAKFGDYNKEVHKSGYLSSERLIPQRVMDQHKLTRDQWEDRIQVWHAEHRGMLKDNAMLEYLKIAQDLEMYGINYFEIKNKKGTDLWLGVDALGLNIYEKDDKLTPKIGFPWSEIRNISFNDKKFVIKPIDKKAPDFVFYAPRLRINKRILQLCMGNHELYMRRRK

[3] = molecular target: T3, G3BP2 NTF2 domain, His-GST-tagged (human, UniProt Q9UN86 11-133)
T3 sequence (looked up): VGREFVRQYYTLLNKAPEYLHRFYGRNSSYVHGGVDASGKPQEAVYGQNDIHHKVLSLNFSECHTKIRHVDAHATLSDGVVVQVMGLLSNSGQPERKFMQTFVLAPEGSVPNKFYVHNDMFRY

[4] = molecular target: G3BP1 NTF2 domain, His-GST-tagged (human, UniProt Q13283 11-133)
Sequence of G3BP1 NTF2 domain, His-GST-tagged (Q13283 11-133): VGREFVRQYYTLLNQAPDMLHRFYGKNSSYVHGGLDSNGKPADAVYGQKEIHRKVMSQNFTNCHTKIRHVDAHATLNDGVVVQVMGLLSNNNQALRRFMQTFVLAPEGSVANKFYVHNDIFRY

USP7 MATH domain = USP7 MATH domain (human, UniProt Q93009 68-195)
Sequence of USP7 MATH domain (Q93009 68-195): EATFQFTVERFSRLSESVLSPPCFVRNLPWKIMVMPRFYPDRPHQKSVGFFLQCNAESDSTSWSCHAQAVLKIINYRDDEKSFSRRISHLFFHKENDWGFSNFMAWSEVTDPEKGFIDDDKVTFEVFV

Ezrin FERM domain [5] = molecular target: Ezrin FERM domain (human, UniProt P15311 2-296)
Target sequence in this assay (P15311 2-296): as the sequence (P15311 2-296) above

Radixin FERM domain [6] = molecular target: T4, Radixin FERM domain (human, UniProt P35241 5-295)
T4 construct: also called RDX
T4 sequence (P35241 5-295): as the sequence (P35241 5-295) above

G3BP1 NTF2 domain = G3BP1 NTF2 domain (human, UniProt Q13283 11-133)
Sequence of G3BP1 NTF2 domain (Q13283 11-133): as the sequence (Q13283 11-133) above

G3BP2 NTF2 domain = molecular target: T5, G3BP2 NTF2 domain (human, UniProt Q9UN86 11-133)
T5 sequence (looked up): T3 sequence (looked up)

Binder	IC50 (G3BP1 NTF2 domain) [µM]	IC50 (G3BP2 NTF2 domain) [µM]	Ki (G3BP2 NTF2 domain) [µM]	further results
{FITC}-YYSVNTFKEHHSTPTI (also called Kirrel probe peptide) [Kirrel FITC-YYSVNTFKEHHSTPTI]				Kd (Radixin FERM domain [1]): 0.485 ± 0.003 µM; Kd (Ezrin FERM domain [2]): 1.4 ± 0.1 µM
{FITC}-APRITFGGPSDS [N FITC-APRITFGGPSDS]				Kd [3]: 2.1 ± 0.1 µM; Kd [4]: 3.2 ± 0.1 µM
{FITC}-DYSQPSTSSSIIY (also called MDM2 probe peptide) [MDM2 FITC-DYSQPSTSSSIIY]				Kd (USP7 MATH domain): 0.49 ± 0.06 µM
VDTSNSFEVLAVEDTQY [NSP3 peptide 1996-2011 (Sars-CoV)]				IC50 (Ezrin FERM domain [5]): 200 µM; Ki (Ezrin FERM domain [5]): 218 µM; IC50 (Radixin FERM domain [6]): 200 µM; Ki (Radixin FERM domain [6]): 56.2 µM
{FITC}-YYSVNTFKEHHSTPTI [FITC-Kirrel3 peptide 668-683]				Kd (Radixin FERM domain [6]): 0.485 µM
APRITFGGPTDSTDNY [N peptide 13-27 (Sars-CoV)]	10			
QGLPLEFGASAETVRY [NSP3 peptide 958-972 (Sars-CoV)]	320	130	47	Ki (G3BP1 NTF2 domain): 119 µM
APRAVTFGDNNDNNTY [N peptide 6-20 (Mers1)]	130	80		Ki (G3BP1 NTF2 domain): 51 µM
PSKLPTFGAPEQLVDY [TRIM25 peptide 400-414]	120	53	17	Ki (G3BP1 NTF2 domain): 46 µM
NLQFGALQFGSEPVY [UBAP2L peptide 515-528]	104	79	32	
PVPPIEFGVSPKDSDY [PRRC2B peptide 1780-1794]		53	19	
AQMQGPYNFIQDSMLD [CAPRIN1 peptide 364-379]		29		
ESLPFSFGTLSSWELE [DDIT3 peptide 4-19]		30	12	
